From patent US20220340685A1, “COMBINATION THERAPY WITH ENTPD2 AND CD73 ANTIBODIES” (Novartis AG, priority 2019, published 2022)
Residue numbers refer to the chain shown, from its start.

Assays:
[1] = target: T1, recombinant human ENTPD2 (residues 29-462) (Homo sapiens, UniProt Q9Y5L3); assay: Biochemical human ENTPD2 functional assay (Transcreener ADP2 TR-FRET)
T1 construct: residues 29-462 of human or cyno ENTPD2; GP67 signal peptide (N); made in house; host or cells: High Five (Trichoplusia ni) insect cells, baculovirus
T1 sequence (Q9Y5L3 29-462): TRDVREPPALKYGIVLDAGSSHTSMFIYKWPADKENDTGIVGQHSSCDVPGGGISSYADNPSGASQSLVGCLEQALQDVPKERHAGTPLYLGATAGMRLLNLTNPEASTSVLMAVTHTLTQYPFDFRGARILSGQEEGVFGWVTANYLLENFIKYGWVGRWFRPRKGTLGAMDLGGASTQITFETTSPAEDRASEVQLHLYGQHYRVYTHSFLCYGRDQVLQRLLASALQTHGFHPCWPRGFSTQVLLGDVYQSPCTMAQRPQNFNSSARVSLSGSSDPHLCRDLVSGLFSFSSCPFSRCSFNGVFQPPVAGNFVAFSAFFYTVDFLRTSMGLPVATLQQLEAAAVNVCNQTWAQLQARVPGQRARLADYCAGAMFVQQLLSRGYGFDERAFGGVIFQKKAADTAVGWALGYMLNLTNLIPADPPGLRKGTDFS
Source text: Biochemical and cell-based functional assays were developed in-house to understand functional impact of anti-ENTPD2 Abs against purified extracellular domain of ENTPD2 (residues 29-462), as well as against the fully intact protein in the context of the native cell-based conformation. ENTPD2 hydrolyzes ATP to ADP, which can subsequently be detected using the HTRF Transcreener ADP2 TR-FRET Red Assay (BellBrook Labs, Madison, Wis.) where ENTPD2-produced ADP would compete with the ADP Tracer for binding to the anti-ADP-Tb antibody. The resulting signal is inversely proportional to the concentration of ADP in the sample. […]
HTRF signal (Emission at 620 nm and 665 nm) was assessed in both assays using the Envision plate reader in HTRF mode (Perkin Elmer, Waltham, Mass.). HTRF ratio was determined using the following formula: HTRF ratio=R=Emission at 665 nm/Emission at 620 nm×10,000. Subsequently % Residual Activity and % Inhibition were determined as follows:
Where R0% is the HTRF ratio of the negative control (0% enzyme activity), and R100% is the HTRF ratio of the positive control (100% enzyme activity). Data were analyzed in Microsoft Excel and graphed using GraphPad's Prism 7.0 software and IC50 values were obtained using non-linear regression, log (agonist) vs. response-variable slope (four parameters) analysis.

ENTPD2 = target: T2, ENTPD2 (Homo sapiens, UniProt Q9Y5L3); assay: Cell-based screen of hybridoma-derived mAbs for inhibition of ATP hydrolysis by ENTPD2
T2 sequence (Q9Y5L3 1-495): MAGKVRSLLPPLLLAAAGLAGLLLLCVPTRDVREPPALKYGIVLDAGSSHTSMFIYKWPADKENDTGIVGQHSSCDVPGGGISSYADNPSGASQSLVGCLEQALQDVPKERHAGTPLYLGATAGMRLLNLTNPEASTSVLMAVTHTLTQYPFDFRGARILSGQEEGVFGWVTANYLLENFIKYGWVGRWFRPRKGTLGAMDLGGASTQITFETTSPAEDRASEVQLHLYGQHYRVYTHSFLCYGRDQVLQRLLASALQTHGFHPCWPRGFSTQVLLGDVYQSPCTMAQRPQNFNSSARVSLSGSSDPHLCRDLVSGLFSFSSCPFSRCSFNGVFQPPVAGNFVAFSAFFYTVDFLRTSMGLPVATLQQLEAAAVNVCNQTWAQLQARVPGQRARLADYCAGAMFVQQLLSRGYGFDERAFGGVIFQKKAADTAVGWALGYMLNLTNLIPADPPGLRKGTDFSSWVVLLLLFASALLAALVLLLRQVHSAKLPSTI
Source text: Hybridoma-derived mAbs were screened in a cell-based assay for inhibition of ATP hydrolysis by ENTPD2.

B16F10 tumor model = assay: Syngeneic B16F10 tumor model, tumor growth; assay type: in vivo, C57BL/6 mice; settings: mAb13 15 mg/kg, anti-PD-1 Ab 10 mg/kg i.p., days 1, 5, 8
Description: B16F10 model was established in female C57BL/6 mice by subcutaneous injection of 0.5×10^6 cells into the right flank of each mouse. On day 7 once tumors reached approximately 30 mm^3, mice were randomized according to tumor volume into treatment groups (n=10 per group). Mice received treatment of either anti-mouse ENTPD2 mAb13 at a final dose 15 mg/kg, anti-PD-1 Ab (clone RMP1-14 Bio X Cell, West Lebanon, N.H.) i.p. at a final dose of 10 mg/kg or the combination of both treatments on days 1, 5, and 8. All doses were adjusted to individual mouse body weights.

4T1 clone 45 model = assay: 4T1 clone 45 model, plasma cytokines and Serum Amyloid P 24 hr post treatment; assay type: in vivo, BALB/c mice; settings: 24 hours after the first treatments
Source text: In order to investigate the immediate impact of ENTPD2 blockade from an immune pathway engagement/biomarker perspective plasma was collected from BALB/c mice 24 hr after treatment with anti mENTPD2 mAb15 alone or in combination with anti-CD73 mAb 350.
(§1) Mouse ENTPD2-engineered 4T1 clone 45 model was established in female BALB/c mice by subcutaneous injection of 0.5×10^6 cells into the right flank of each mouse. Once tumors reached approximately 100-150 mm^3, mice were randomized according to tumor volume into treatment groups (n=8 per group). Mice received an i.p. treatment of either Anti-mENTPD2 mAb 15 or a non-specific mouse IgG2a isotype control at a final dose of 10 mg/kg on day 0, 2, 5 and 9. Anti-CD73 mAb 350 or a non-specific human IgG4 was dosed i.p. at a final dose of 20 mg/kg on day 0 and 5 (Table 28).
For the measurement of cytokines and Serum Amyloid P, a marker of inflammation in a mouse, plasma was collected pre-dosing the mice on Day 0 and 24 hours after the first treatments on Day 1.
Briefly, plasma was isolated via collection of blood into Microvette MV-H-300 Capillary Plasma Lithium Heparin Blood Collection tube (Sai Infusion technologies, Lake Villa, Ill.), that were spun down at 1000-2000 ×g for 10 min. Plasma samples were stored at −80C until use. 10 μL of serum diluted 1:5 was used for cytokine analysis using the MSD Mouse Pro-Inflammatory Panel 1 (MSD, Rockville, Md.) and 5 μL of serum diluted 1:10 MSD Mouse Cytokine Panel 1 (MSD, Rockville, Md.) according to manufacturer's recommendations. To determine the levels of SAP 10 μL of undiluted serum was used for analysis in the SAP Quantikine® ELISA (RnD systems) according to manufacturer's recommendations.

[2] = tested on: mouse ENTPD2-engineered 4T1 clone 45; assay: Mouse ENTPD2 engineered 4T1 clone 45 syngeneic model, efficacy; assay type: in vivo, BALB/c mice; settings: Day 12 post treatment; mAb15 10 mg/kg i.p.; mAb 350 20 mg/kg i.p.
Source text: This model was derived from the 4T1 murine breast cancer model, where mouse ENTPD2 was overexpressed using a retroviral transduction approach. […] Stable mouse ENTPD2 expression (approximately 479,000 receptors) in the model was confirmed in vitro by flow cytometry with the mouse ENTPD2 selective anti mouse ENTPD2 mAb15 (FIG. 27).
as §1, with “50-80” for “100-150”, “(n=10” for “(n=8”, “mAb15” for “mAb 15”, “5.” for “5 (Table 28).”

4T1 clone 45 tumors = assay: 4T1 clone 45 model, flow cytometry of tumor cells and immune infiltrate on day 12; assay type: in vivo, BALB/c mice
Source text: In order to understand the impact of anti-ENTPD2 mAb15 alone or in combination with anti-CD73 mAb 350 treatments on the tumor microenvironment, mice were euthanized on day 12 and tumors were dissociated in HyClone RPMI1640 media (GE Healthcare, Pittsburg, Pa.) using gentleMacs C-tubes (Miltenyi Biotec, Auburn, Calif.) on the gentleMacs Octo Dissociator (Miltenyi Biotec, Auburn, Calif.). Approximately 2×10^6 dissociated tumor cells were blocked with rat anti-mouse CD16/CD32 Ab (Biolegend, San Diego, Calif.) to reduce non-specific FcyRIII/II binding and subsequently stained with the cocktails of antibodies from either the myeloid or T cell panel:
We also stained cells with an anti-ENTPD2 antibody whose binding to ENTP2 is not blocked by anti-ENTPD2 mAb15. All incubations and washed were performed in FACS Buffer composed of 1× Hyclone Phosphate Buffered Saline (GE Healthcare, Pittsburg, Pa.), 1% HyClone Fetal Bovine Serum (GE Healthcare, Pittsburg, Pa.), 2 mM EDTA (ThermoFisher, Waltham Mass.).

B1: mAb17: hybridoma-derived anti-human ENTPD2 lead inhibitory mAb (chimeric); VH/VL DNA SEQ ID NO: 234/238 (antibody, V domains shown)
VH: EVQLQQFGAELVKPGASVKISCKASGYTFTDYNMDWVKQSHGKSLEWIGDINPKYDISTYNQQFKGKATLTVDKSSSTAYMELRSLTSEDTAVYYCARRGFFLYYGINYYYFDVWGAGTTVTVSS
VL: QIVLTQSPAIMSASLGEEITLTCSASSSVSYIHWYQQKSGTSPTLLIYSTSNLASGVPSRFSGSGSGTFYSLTISSVEAEDAADYYCHQWSSYPWTFGGGTKLEIK
modifications: constant regions not cited
B1 was tested, and the “inhibition of the catalytic activity of recombinant human ENTPD2” value [1] was “potently inhibit” and the “inhibition of ATP hydrolysis by ENTPD2 (screen outcome)” value (ENTPD2) was “lead inhibitory mAbs”.

B2: mAb13: anti-mouse ENTPD2 monoclonal antibody; HC SEQ ID NO: 193, LC SEQ ID NO: 204 (antibody)
heavy: QVQLVQSGAELKQPGQSVKISCKASGYTFTHYGMNWVKQAPGQGLKWMGWINTDTGNPTYADDFKGRFVFSLDTSVSTAYLQISNLKNEDTATYYCVRYGTLYSGYGFFFDSWGQGTLVTVSSAKTTAPSVYPLAPVCGDTTGSSVTLGCLVKGYFPEPVTLTWNSGSLSSGVHTFPAVLQSDLYTLSSSVTVTSSTWPSQSITCNVAHPASSTKVDKKIEPRGPTIKPCPPCKCPAPNLLGGPSVFIFPPKIKDVLMISLSPIVTCVVVDVSEDDPDVQISWFVNNVEVHTAQTQTHREDYNSTLRVVSALPIQHQDWMSGKEFKCKVNNKDLPAPIERTISKPKGSVRAPQVYVLPPPEEEMTKKQVTLTCMVTDFMPEDIYVEWTNNGKTELNYKNTEPVLDSDGSYFMYSKLRVEKKNWVERNSYSCSVVHEGLHNHHTTKSFSRTPGK
light: DIMMTQSPSSLSVSAGEKATITCKSSQSLFNSNTNKNYLNWYLQKPGQSPKLLFYYASTRHTGVPDRFIGSGSGTDFTLTITSVQDEDLADYYCQQWYSYPWTFGPGTKLEIKRADAAPTVSIFPPSSEQLTSGGASVVCFLNNFYPKDINVKWKIDGSERQNGVLNSWTDQDSKDSTYSMSSTLTLTKDEYERHNSYTCEATHKTSTSPIVKSFNRNEC
In the case of B2, the “anti-tumor efficacy (tumor growth relative to No Treatment)” value (B16F10 tumor model) is reported as “No significant anti-tumor efficacy”.

B3: mAb15: anti-mouse ENTPD2 antibody, T30 variant of mAb13; HC SEQ ID NO: 218, LC SEQ ID NO: 204 (antibody)
heavy: B2 heavy with T30H
light: B2 light
B3 was tested, and the “SAP (Serum Amyloid P)” value (4T1 clone 45 model) was “significant increase”, the “plasma IP10” value (4T1 clone 45 model) was “significant increase” and the “plasma MCP1” value (4T1 clone 45 model) was “significant increase”. The “plasma MIP-2” value (4T1 clone 45 model) was “significant increase”, the AT/AC value [2] was 76.61 and the “CD4+ central memory cells (CD45+MHCII-CD49−CD4+CD62L+CD44+)” value (4T1 clone 45 tumors; day 12) was “significant increase”. The “activated CD8+ T cells (CD45+MHCII-CD49−CD8+CD25+)” value (4T1 clone 45 tumors; day 12) was “significant increase” and the “cell surface ENTPD2 staining on tumor cells” value (4T1 clone 45 tumors; day 12, vs hIgG4 and mIgG2 isotype antibodies) was “decrease in cell surface ENTPD2 staining”.

B4: mAb16: hybridoma-derived anti-human ENTPD2 lead inhibitory mAb (chimeric); VH/VL DNA SEQ ID NO: 226/230 (antibody, V domains shown)
VH: DIQLQESGPGLVKPSQSLSLTCSVTGYSITSGYYWNWIRQFPGNKLEWMGYISYDGDNNYNPSLKNRISITRDTSKNQFFLKLSSVTTEDTATYYCAGGYYRYGLSYYYVMDYWGQGTSVTVSS
VL: DTVLTQSPASLAVSLGQRATISCKASQSVDYDGNSYMNWYQQKPGQPPKLLIYAASNLESGIPARFSGSGSGTDFTLNIHPVEEEDAATYYCQQSNEDPPTFGGGTKLEIK
modifications: constant regions not cited
For B4, the “inhibition of ATP hydrolysis by ENTPD2 (screen outcome)” value (ENTPD2) was “lead inhibitory mAbs”.
